Laboratory results: PMC11169542, “A probe for NIR-II imaging and multimodal analysis of early Alzheimer’s disease by targeting CTGF” (Nature Communications, 2024)
Ends that are not written are not given here.

Columns and labels:
SH-SY5Y cells = experiment: Cytotoxicity of DGC (CCK-8); format: cell-based; design: key to Cell viability: viability relative to control cells (control = 1); settings: for Cell viability: 24 h, CCK-8, normalized to control
Method: U87MG, SH-SY5Y, and CTX TNA2 cells were seeded into 96-well plates at a density of 5 × 10^3 cells per well and were incubated at 37 °C for 24 h. […] Next, 10 µL of a colorimetric Cell Counting Kit (CCK-8) reagent diluted with 100 µL medium was added to each well, and incubated for 30 min, The absorbance at 450 nm was measured using a microplate reader (Molecular Devices, San Jose, CA, USA). The relative viability was normalized to control cells. The experiment was performed in triplicates.

[1] = Dynamic light scattering, hydrated particle size; format: physicochemical; settings: dynamic light scattering (Zetasizer Nano), aqueous
Description: The fluorescence spectrophotometer (Shimadzu RF-5301, Kyoto, Japan) and NIR spectrograph FLS1000 was used to acquire the fluorescence and NIR spectra of the as-synthesized DGC. The mean hydrated particle size and size distribution of DGC were further documented by a phase analysis light-scattering technique (Zetasizer Nano, Malvern). The synthetic DGC was also observed by using a High-Resolution Transmission Electron Microscope (HRTEM, FEI Talos F200X-G2) at the accelerated voltage of 200 kV.

**Q.** With “DGC: CTGF-targeting peptide-coated gold nanocluster: one Au26 gold nanocluster coated by eight DAG cyclic peptides, NIR-II and red fluorescence (CDAGRKQKC; also: cyclic peptide, ring not given here, eight peptides on one Au26 nanocluster via Cys Au-S bonds)” as the substance, how does the Cell viability (SH-SY5Y cells; 5 μM (Au content), replicate 1) read?
**A.** 1.078

**Q.** What about the Cell viability (SH-SY5Y cells; 5 μM (Au content), replicate 2) of the same substance?
**A.** 1.039

**Q.** And the Cell viability (SH-SY5Y cells; 5 μM (Au content), replicate 3)?
**A.** 1.074

**Q.** What about the Cell viability (SH-SY5Y cells; 10 μM (Au content), replicate 1) of the same substance?
**A.** 0.9372

**Q.** And the Cell viability (SH-SY5Y cells; 10 μM (Au content), replicate 2)?
**A.** 1.045

**Q.** What about the Cell viability (SH-SY5Y cells; 10 μM (Au content), replicate 3) of the same substance?
**A.** 1.038

**Q.** What about the Cell viability (SH-SY5Y cells; 20 μM (Au content), replicate 1) of the same substance?
**A.** 1.029

**Q.** What about the Cell viability (SH-SY5Y cells; 20 μM (Au content), replicate 2) of the same substance?
**A.** 1.021

**Q.** What about the Cell viability (SH-SY5Y cells; 20 μM (Au content), replicate 3) of the same substance?
**A.** 1.039

**Q.** What about the Cell viability (SH-SY5Y cells; 50 μM (Au content), replicate 1) of the same substance?
**A.** 1.012

**Q.** And the Cell viability (SH-SY5Y cells; 50 μM (Au content), replicate 2)?
**A.** 1.009

**Q.** What about the Cell viability (SH-SY5Y cells; 50 μM (Au content), replicate 3) of the same substance?
**A.** 1.025

**Q.** And the Cell viability (SH-SY5Y cells; 100 μM (Au content), replicate 1)?
**A.** 0.9429

**Q.** And the Cell viability (SH-SY5Y cells; 100 μM (Au content), replicate 2)?
**A.** 0.9751

**Q.** What about the Cell viability (SH-SY5Y cells; 100 μM (Au content), replicate 3) of the same substance?
**A.** 1.036

**Q.** And the Cell viability (SH-SY5Y cells; 200 μM (Au content), replicate 1)?
**A.** 0.977

**Q.** What about the Cell viability (SH-SY5Y cells; 200 μM (Au content), replicate 2) of the same substance?
**A.** 1.039

**Q.** What about the Cell viability (SH-SY5Y cells; 200 μM (Au content), replicate 3) of the same substance?
**A.** 0.9912

**Q.** And the Cell viability (SH-SY5Y cells; 500 μM (Au content), replicate 1)?
**A.** 0.9817

**Q.** And the Cell viability (SH-SY5Y cells; 500 μM (Au content), replicate 2)?
**A.** 0.9959

**Q.** What about the Cell viability (SH-SY5Y cells; 500 μM (Au content), replicate 3) of the same substance?
**A.** 1.057

**Q.** What about the cytotoxicity (SH-SY5Y cells; DGC incubation 24 h, CCK-8) of the same substance?
**A.** did not cause any obvious cytotoxicity

**Q.** What about the average hydrated size [1] of the same substance?
**A.** ~ 2.85 nm
